Our source for the self-aminoacylation values is the supplement of paper PMC9233669.

Variants at the floor of the assay were thinned out.

The test system of one data set is biotinyl-Phe-oxazolone. As to the kind of experiment: self-aminoacylation, catalytic enhancement (BFO) (fold over background); higher = more active; k-Seq, kA / k0A0; sequences stand for … in GGGAAUGGAUCCACAUCUACGAAUUC…UUCACUGCAGACUUGACGAAGCUG
Put shortly: (§1)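 Working in 50 μL HEPES/NaCl/KCl/MgCl2/CaCl2 buffer with 5% acetonitrile at pH 6.9–7.0, mutagenized RNA pools (0.43 μM; 21-nt variable region) were reacted with 2–1250 μM of each biotinyl-aminoacyl-oxazolone for 90 minutes at room temperature. Streptavidin capture followed, with quantification by triplicate qPCR and Illumina sequencing. Catalytic enhancement is reported as median kA over the uncatalyzed rate, the low-activity peak of a bimodal Gaussian fit to the data.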

For another data set, the system named is biotinyl-Trp-oxazolone. As to the kind of experiment: self-aminoacylation, catalytic enhancement (BWO) (fold over background); higher = more active; k-Seq, kA / k0A0; sequences stand for … in GGGAAUGGAUCCACAUCUACGAAUUC…UUCACUGCAGACUUGACGAAGCUG
In short, it runs like this:
as §1

In the next data set the test system is biotinyl-Met-oxazolone. As to the kind of experiment: self-aminoacylation, catalytic enhancement (BMO) (fold over background); higher = more active; k-Seq, kA / k0A0; sequences stand for … in GGGAAUGGAUCCACAUCUACGAAUUC…UUCACUGCAGACUUGACGAAGCUG
Put shortly: as §1

For another data set, the system named is biotinyl-Ile-oxazolone. As to the kind of experiment: self-aminoacylation, catalytic enhancement (BIO) (fold over background); higher = more active; k-Seq, kA / k0A0; sequences stand for … in GGGAAUGGAUCCACAUCUACGAAUUC…UUCACUGCAGACUUGACGAAGCUG
Put shortly: as §1

Another data set relates to biotinyl-Leu-oxazolone. Description: self-aminoacylation, catalytic enhancement (BLO) (fold over background); higher = more active; k-Seq, kA / k0A0; sequences stand for … in GGGAAUGGAUCCACAUCUACGAAUUC…UUCACUGCAGACUUGACGAAGCUG
In short, it runs like this: as §1

In a further data set the test system is biotinyl-Val-oxazolone. As to the kind of experiment: self-aminoacylation, catalytic enhancement (BVO) (fold over background); higher = more active; k-Seq, kA / k0A0; sequences stand for … in GGGAAUGGAUCCACAUCUACGAAUUC…UUCACUGCAGACUUGACGAAGCUG
Put shortly: as §1

On to “AAGUUUGCUAGUAGCCGCAAG [Fam3.1 aminoacylation ribozyme variant]”, for which the self-aminoacylation is 1.34 in the data set with biotinyl-Phe-oxazolone; 0.972 with biotinyl-Trp-oxazolone; 0.787 in the data set with biotinyl-Met-oxazolone; 1.16 in the data set on biotinyl-Ile-oxazolone; 1.09 with biotinyl-Leu-oxazolone; 0.797 with biotinyl-Val-oxazolone.
In the case of “AAGGUUGCUAAUAGUCGAAAG [Fam3.1 aminoacylation ribozyme variant]”, the self-aminoacylation with biotinyl-Phe-oxazolone was 6.22; with biotinyl-Trp-oxazolone it was 2.33; with biotinyl-Met-oxazolone it was 1.36; with biotinyl-Ile-oxazolone, 1.51; in the data set with biotinyl-Leu-oxazolone, 0.938; with biotinyl-Val-oxazolone it was 1.44.
Regarding “CCACACUUCAAGCAAACUGUC [Fam1B.1 aminoacylation ribozyme variant]”, the self-aminoacylation with biotinyl-Phe-oxazolone worked out at 0.713; in the data set with biotinyl-Trp-oxazolone, 0.5; with biotinyl-Met-oxazolone, 0.371; in the data set on biotinyl-Ile-oxazolone, 0.424; in the data set with biotinyl-Leu-oxazolone, 0.44; in the data set on biotinyl-Val-oxazolone, 0.504.
On to “AGGCUUGCUAAUAGUCGCAAG [Fam3.1 aminoacylation ribozyme variant]”, for which the self-aminoacylation came to 3.69 with biotinyl-Phe-oxazolone; 2.08 in the data set on biotinyl-Trp-oxazolone; 2.14 in the data set on biotinyl-Met-oxazolone; 2.17 in the data set on biotinyl-Ile-oxazolone; 2.31 in the data set on biotinyl-Leu-oxazolone; 1.96 in the data set with biotinyl-Val-oxazolone.
Turning to “CUACUUCAAACAAUCGGCCUA [Fam1A.1 aminoacylation ribozyme variant]”, the self-aminoacylation in the data set on biotinyl-Phe-oxazolone is 2.51; in the data set on biotinyl-Trp-oxazolone it was 1.43; in the data set with biotinyl-Met-oxazolone, 1.39; with biotinyl-Ile-oxazolone, 1.48; in the data set with biotinyl-Leu-oxazolone, 1.25; with biotinyl-Val-oxazolone, 1.16.
With “CCAUACUUCAAGCAAUCGGGC [Fam1B.1 aminoacylation ribozyme variant]”, the self-aminoacylation in the data set on biotinyl-Phe-oxazolone stood at 2.06; in the data set on biotinyl-Trp-oxazolone, 1.15; in the data set on biotinyl-Met-oxazolone, 1.53; in the data set with biotinyl-Ile-oxazolone, 1.95; in the data set on biotinyl-Leu-oxazolone, 1.61; in the data set with biotinyl-Val-oxazolone, 1.73.
As to “ACUACCCUGGUCAUCGAGUAA [Fam2.1 aminoacylation ribozyme variant]”, the self-aminoacylation in the data set with biotinyl-Phe-oxazolone was found to be 20.1; in the data set with biotinyl-Trp-oxazolone it was 8; in the data set with biotinyl-Met-oxazolone, 9.42; with biotinyl-Ile-oxazolone, 3.33; with biotinyl-Leu-oxazolone, 8.99; in the data set with biotinyl-Val-oxazolone, 3.99.
With “CUACUUCAAACAAUUGGUUUG [Fam1A.1 aminoacylation ribozyme variant]”, the self-aminoacylation is 0.803 in the data set on biotinyl-Phe-oxazolone; 0.708 in the data set on biotinyl-Trp-oxazolone; 0.676 in the data set with biotinyl-Met-oxazolone; 0.757 with biotinyl-Ile-oxazolone; 0.721 in the data set with biotinyl-Leu-oxazolone; 0.7 with biotinyl-Val-oxazolone.
Take “CCACACCACAAGCAAUCGGUC [Fam1B.1 aminoacylation ribozyme variant]”: the self-aminoacylation with biotinyl-Phe-oxazolone was 0.854; with biotinyl-Trp-oxazolone, 0.871; with biotinyl-Met-oxazolone, 0.999; in the data set on biotinyl-Ile-oxazolone, 1.13; with biotinyl-Leu-oxazolone it was 0.949; in the data set on biotinyl-Val-oxazolone, 1.1.
As for “CCACACGUCAUGCAAUCGGUC [Fam1B.1 aminoacylation ribozyme variant]”, the self-aminoacylation is 0.974 with biotinyl-Phe-oxazolone; 1.61 in the data set with biotinyl-Trp-oxazolone; 1.26 with biotinyl-Met-oxazolone; 1.18 in the data set with biotinyl-Ile-oxazolone; 0.972 in the data set with biotinyl-Leu-oxazolone; 1.34 with biotinyl-Val-oxazolone.
Regarding “AUUUCCCUGGUCAUCGAUUGA [Fam2.1 aminoacylation ribozyme variant]”, the self-aminoacylation worked out at 0.598 in the data set with biotinyl-Phe-oxazolone; 0.985 in the data set on biotinyl-Trp-oxazolone; 0.986 in the data set with biotinyl-Met-oxazolone; 1.07 with biotinyl-Ile-oxazolone; 1.06 in the data set with biotinyl-Leu-oxazolone; 1 in the data set on biotinyl-Val-oxazolone.
“CUACGUCAAACAAUCGGCCUG [Fam1A.1 aminoacylation ribozyme variant]”: the self-aminoacylation in the data set with biotinyl-Trp-oxazolone was found to be 4.49; in the data set with biotinyl-Met-oxazolone, 2.29; in the data set with biotinyl-Ile-oxazolone, 2.56; with biotinyl-Leu-oxazolone, 2.69; in the data set with biotinyl-Val-oxazolone, 2.84.
In the case of “CCAGACUUCAAGCAAUCGGGC [Fam1B.1 aminoacylation ribozyme variant]”, the self-aminoacylation in the data set with biotinyl-Trp-oxazolone stood at 3.72; in the data set on biotinyl-Ile-oxazolone it was 2.71; in the data set on biotinyl-Leu-oxazolone it was 2.69; with biotinyl-Val-oxazolone, 3.13.
As to “GAGUUUGCUAAUAGUCGCAAU [Fam3.1 aminoacylation ribozyme variant]”, the self-aminoacylation was found to be 2.19 in the data set with biotinyl-Phe-oxazolone, 3.41 in the data set with biotinyl-Trp-oxazolone and 2.21 in the data set on biotinyl-Ile-oxazolone.
With “AUUCACCUGGGUCAUCGGCUG [Fam2.2 aminoacylation ribozyme variant]”, the self-aminoacylation with biotinyl-Phe-oxazolone amounted to 8.1; in the data set with biotinyl-Ile-oxazolone, 2.01; in the data set with biotinyl-Leu-oxazolone, 2.27; in the data set on biotinyl-Val-oxazolone, 2.54.
As for “CAACUUCAAACAAUCGGGCUG [Fam1A.1 aminoacylation ribozyme variant]”, the self-aminoacylation in the data set on biotinyl-Phe-oxazolone was found to be 23.8; with biotinyl-Trp-oxazolone, 20.1; in the data set with biotinyl-Ile-oxazolone it was 2.18; with biotinyl-Leu-oxazolone it was 2.58; in the data set with biotinyl-Val-oxazolone, 2.25.
As to “AUUCACCAAGGUCAUCGGGGG [Fam2.2 aminoacylation ribozyme variant]”, the self-aminoacylation with biotinyl-Phe-oxazolone came out at 11.9; in the data set on biotinyl-Trp-oxazolone, 2.91; with biotinyl-Met-oxazolone, 2.23; in the data set with biotinyl-Ile-oxazolone, 2.02; with biotinyl-Leu-oxazolone, 2.72.
With “CUUCACCUAGGUCAUCGGGCG [Fam2.2 aminoacylation ribozyme variant]”, the self-aminoacylation in the data set with biotinyl-Trp-oxazolone amounted to 4.39; with biotinyl-Met-oxazolone, 3.57; with biotinyl-Ile-oxazolone, 2.36; in the data set on biotinyl-Leu-oxazolone it was 2.75; in the data set with biotinyl-Val-oxazolone, 2.97.
Take “AAUUUUACUAAUAGUCGCAAG [Fam3.1 aminoacylation ribozyme variant]”: the self-aminoacylation in the data set on biotinyl-Phe-oxazolone was found to be 2.67; in the data set with biotinyl-Ile-oxazolone it was 2.01.
In the case of “AUUCACCUAGCUGAUCGGGUG [Fam2.2 aminoacylation ribozyme variant]”, the self-aminoacylation in the data set on biotinyl-Phe-oxazolone was determined as 8.31; in the data set with biotinyl-Ile-oxazolone, 2.29; in the data set with biotinyl-Leu-oxazolone it was 2.82; in the data set on biotinyl-Val-oxazolone it was 2.63.
“AACUUUGCUCAUAGUCGCAAG [Fam3.1 aminoacylation ribozyme variant]”: the self-aminoacylation in the data set with biotinyl-Phe-oxazolone was 10.8; in the data set with biotinyl-Trp-oxazolone it was 2.34; with biotinyl-Met-oxazolone it was 2; with biotinyl-Ile-oxazolone it was 2.01; in the data set with biotinyl-Leu-oxazolone, 2.47.
On to “AAUUUAGCUAAUAGUCGCAAG [Fam3.1 aminoacylation ribozyme variant]”, for which the results for the self-aminoacylation in the data set on biotinyl-Phe-oxazolone and with biotinyl-Ile-oxazolone were 2.58 and 2.02, respectively.
Regarding “CCCCAUUUCAAGCAAUCGGUC [Fam1B.1 aminoacylation ribozyme variant]”, the self-aminoacylation stood at 9.72 in the data set on biotinyl-Phe-oxazolone, 7.54 in the data set on biotinyl-Trp-oxazolone, 2.26 with biotinyl-Ile-oxazolone and 2.07 in the data set on biotinyl-Val-oxazolone.
Regarding “CCACACUUCAAGCAUUCCGUC [Fam1B.1 aminoacylation ribozyme variant]”, the self-aminoacylation in the data set on biotinyl-Trp-oxazolone came to 3.14; with biotinyl-Met-oxazolone, 2.55; with biotinyl-Ile-oxazolone, 3.19; in the data set on biotinyl-Leu-oxazolone, 2.51; in the data set with biotinyl-Val-oxazolone, 3.
With “CUACUUCAAACAAUCGGCCGG [Fam1A.1 aminoacylation ribozyme variant]”, the self-aminoacylation was 2.44 in the data set on biotinyl-Phe-oxazolone and 2.09 in the data set with biotinyl-Ile-oxazolone.
As to “AAGUUCGCUAAUAGUCGCAAA [Fam3.1 aminoacylation ribozyme variant]”, the self-aminoacylation in the data set with biotinyl-Phe-oxazolone is 4.42; in the data set on biotinyl-Trp-oxazolone, 2.76; in the data set with biotinyl-Met-oxazolone it was 2.01; with biotinyl-Ile-oxazolone it was 2.49; in the data set on biotinyl-Leu-oxazolone it was 2.63.
Turning to “AUUCACCCAGCUCAUCGGGUG [Fam2.2 aminoacylation ribozyme variant]”, the self-aminoacylation stood at 6.9 in the data set with biotinyl-Phe-oxazolone; 2.49 in the data set on biotinyl-Met-oxazolone; 2.73 in the data set with biotinyl-Ile-oxazolone; 2.43 in the data set on biotinyl-Leu-oxazolone; 2.19 in the data set with biotinyl-Val-oxazolone.
In the case of “CCCCACUUCGAGCAAUCGGUC [Fam1B.1 aminoacylation ribozyme variant]”, the self-aminoacylation in the data set on biotinyl-Phe-oxazolone worked out at 5.48; in the data set on biotinyl-Trp-oxazolone, 4.05; in the data set on biotinyl-Ile-oxazolone, 2.2; with biotinyl-Leu-oxazolone, 2.16; in the data set with biotinyl-Val-oxazolone, 2.51.
“AAGCUUGUUAAUAGUCGCAAG [Fam3.1 aminoacylation ribozyme variant]”: the self-aminoacylation with biotinyl-Phe-oxazolone was found to be 3.63; in the data set with biotinyl-Trp-oxazolone, 2.3; with biotinyl-Met-oxazolone it was 2.26; in the data set with biotinyl-Ile-oxazolone it was 2.21; in the data set on biotinyl-Leu-oxazolone, 2.38.
